Source: patent US20230383000A1

Biological target: human IL-1R3 on cells (SK-MEL-30, A549, HEK-293 and other human cell lines) (human) (UniProt Q9NPH3)
Test: flow cytometry on SK-MEL-30 cells (high IL-1R3 expression), 1:2 dilution series from 20 µg/ml

Sequence of human IL-1R3 on cells (SK-MEL-30, A549, HEK-293 and other human cell lines) (human) (Q9NPH3 21-570): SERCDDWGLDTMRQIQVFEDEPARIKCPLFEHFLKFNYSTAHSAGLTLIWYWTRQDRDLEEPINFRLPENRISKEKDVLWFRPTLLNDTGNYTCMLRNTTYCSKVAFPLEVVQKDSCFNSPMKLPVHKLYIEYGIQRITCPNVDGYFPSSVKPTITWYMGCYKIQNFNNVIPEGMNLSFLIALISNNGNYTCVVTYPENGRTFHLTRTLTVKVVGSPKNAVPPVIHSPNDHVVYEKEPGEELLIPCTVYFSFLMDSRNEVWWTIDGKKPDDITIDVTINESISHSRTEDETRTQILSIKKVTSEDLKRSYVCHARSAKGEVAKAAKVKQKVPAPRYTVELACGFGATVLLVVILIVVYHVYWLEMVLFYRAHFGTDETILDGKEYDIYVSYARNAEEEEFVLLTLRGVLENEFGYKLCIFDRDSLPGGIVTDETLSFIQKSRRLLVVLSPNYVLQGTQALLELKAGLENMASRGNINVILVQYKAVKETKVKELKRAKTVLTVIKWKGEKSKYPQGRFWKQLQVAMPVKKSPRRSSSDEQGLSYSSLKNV

B1: MAB-16-0030 (humanized anti-IL-1R3 IgG1-LALA antibody) (antibody, from another filing, V domains shown)
VH: EVQLEESGGRLVQPGTSLRLSCAVSGFSLSSYDMSWVRQAPGKGLEWVSTIYIGGTTAYASWPKGRFTISKTNSKNTLYLQMNSLRAEDTAVYFCARLQGANYYNSLALWGQGTLVTVSS
VL: DVQMTQSPSSLSASVGDRVTITCQASQSIYSFLSWYQQKPGQAPKLLIYAASDLESGVPSRFSGSGSGTDFTLTISSLQPEDFATYYCQCNYIIDYGAFGQGTKVVIKR
How did the EC50 turn out when B1 was run?
Its EC50 is 0.307 µg/mL.
